Assays:
[1] = target: T1, ScDmc1 (Saccharomyces cerevisiae Dmc1, wild type) (Saccharomyces cerevisiae) (UniProt P25453)
T1 sequence: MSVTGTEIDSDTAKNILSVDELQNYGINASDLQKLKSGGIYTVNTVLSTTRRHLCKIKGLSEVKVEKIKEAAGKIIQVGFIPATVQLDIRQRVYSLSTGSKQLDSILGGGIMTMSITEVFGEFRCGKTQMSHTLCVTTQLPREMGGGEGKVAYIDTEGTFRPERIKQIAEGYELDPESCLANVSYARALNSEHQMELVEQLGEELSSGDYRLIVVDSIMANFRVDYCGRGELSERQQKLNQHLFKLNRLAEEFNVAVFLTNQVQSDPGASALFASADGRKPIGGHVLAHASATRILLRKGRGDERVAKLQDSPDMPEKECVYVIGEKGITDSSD

[2] = target: T1, ScDmc1 (Saccharomyces cerevisiae Dmc1, wild type) (Saccharomyces cerevisiae); remark: listed apart in the source
[3] = target: T1, ScDmc1 (Saccharomyces cerevisiae Dmc1, wild type) (Saccharomyces cerevisiae); remark: listed apart in the source
[4] = target: T1, ScDmc1 (Saccharomyces cerevisiae Dmc1, wild type) (Saccharomyces cerevisiae); remark: listed apart in the source
[5] = target: T1, ScDmc1 (Saccharomyces cerevisiae Dmc1, wild type) (Saccharomyces cerevisiae); remark: listed apart in the source
[6] = target: T1, ScDmc1 (Saccharomyces cerevisiae Dmc1, wild type) (Saccharomyces cerevisiae); remark: listed apart in the source

B1: ScMei5–Sae3 heterodimer (complex)
chain 1: MHNQEEWLDKDKTLVNEEENTCINHSYTKKDTNNYRVGKSGIKDLKKPTNQKEIAIKNRELTKQLTLLRQENNHLQQACKILSENKIIENRKSIEKWRTICEMELSFILNSTLIKINRMGGYKDFLEKEMEAKKRRLEYQIDNGMEDQICEIKESDDFRQLSEVEKQEWESQMNEQLKELEKKKIAELEKLNKVLHDSEGKDFGMAELCTRLKLDYSLIFPQ
chain 2: MNYLETQLNKKQKQIQEYESMNGNLIKMFEQLSKEKKNDETPKKISSTYIKELKEYNELRDAGLRLAQIIADEKQCKIKDVFEEIGYSMKD
apparent KD of Dmc1 for ssDNA by fluorescence polarisation, fold reduction by 400 nM Mei5–Sae3 (ADP in place of ATP) [1]: 1.5 fold | apparent KD of Dmc1 for ssDNA by fluorescence polarisation, fold reduction by 400 nM Mei5–Sae3 (AMP–PNP in place of ATP) [1]: 1.5 fold | apparent KD of Dmc1 for ssDNA by fluorescence polarisation, fold reduction by 400 nM Mei5–Sae3 (ATP, 70 µM Ca2+, 100 mM NaCl) [1]: 2 fold | D-loop yield with versus without 0.5 µM Mei5–Sae3 (3 µM Dmc1, 0.2 µM RPA, 70 µM Ca2+, 5 mM Mg2+, ATP) [2]: 2.5 fold | ssDNA-dependent ATP hydrolysis by Dmc1 (TLC), with versus without Mei5–Sae3, 70 µM Ca2+ [3]: 2 fold | negative-stain EM: average Dmc1 filament length with 2 µM Mei5–Sae3 against the control without it (ATP, 70 µM Ca2+, RPA) [4]: 1.5 fold | negative-stain EM: share of Dmc1 filaments in the extended (active) form with 2 µM Mei5–Sae3 (ATP, 70 µM Ca2+, RPA; 17% without Mei5–Sae3) [4]: 76% | 3H-ADP retained on Dmc1 filaments (nitrocellulose filter) after adding 0.5, 1 or 2 µM Mei5–Sae3; value at 2 µM [5]: 65% | negative-stain EM: average Dmc1 filament length with versus without Mei5–Sae3, ADP as cofactor (compressed filaments) [6]: 2.3 fold | negative-stain EM: average Dmc1 filament length with versus without Mei5–Sae3, AMP–PNP as cofactor [6]: 1.5 fold

Reference: article PMC12596195, “Mei5–Sae3 stabilizes both active and inactive forms of Dmc1 filaments independently of its impact on ATP hydrolysis” (Nucleic Acids Research, 2025)
